The values below come from the nanobody polyreactivity screen of Harvey et al. (2022).

This data set can be described thus: yeast display, Sf9 membrane polyspecificity reagent, FACS + sequencing; frameworks hold sequencing errors. The gist of the method:
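Nanobodies came from a synthetic yeast display library in Saccharomyces cerevisiae BJ5465, induced with galactose for 36–48 hours and stained for 1 hour at 4 °C with 10% biotinylated, detergent-solubilized Sf9 membrane reagent. Cells were enriched on streptavidin microbeads and then FACS-sorted, with low and high (top ~1%) gates set on anti-HA fluorescence for expression and streptavidin fluorescence for reagent binding. Each polyreactivity label reflects the gate a clone came from. Genes were amplified by colony PCR, sequenced by MiSeq 2 × 250 and filtered by CDR length.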
On to “QVQLVESGGGLVQAGGRLRLSCAASGITFTVFAMGWYRQAPGKERELVAAISQSGGSTYYADSVKGRFTISRDNAKNTVYLQMNILNPEDTAVYYCAKTLPSNGHYDYWGQGTQVTVSS”, for which the “polyreactivity (PSR sort gate)” value was “low polyreactivity”.
The same measure for “QVQLVESGGGLVQAGGRLRLSCAASGITIYGYAMGWYRQAPGKEREFVAAISYSGASTYYADSVKGRFTISRDNAKNTVYLQMNSLKPEDTAVYYCAARVRRSLYGYWGIGTQVTVSS”: “high polyreactivity”; for “QVQLVESGGGLVQAGGRLRLSCAASGLTFKRYAMGWYRQAPGKERELVASITGNGGSTYYADSVKGRFTISRDNAKNTVYLQINSLKPEDTAVYYCNARRYVRTSQQPLYFYWGQGTQVTVSS”: “high polyreactivity”; for “QVQLVESGGGLVQAGGRLRLSCAASGLTFYLSAMGWYRQAPGKERELVAGISRSGGSTYYADAVKGRFTISRDYAKNTVYLLMNSLKPEDTAVSYCNKASAVFEFYYWGQGTQVTVSS”: “high polyreactivity”.
To “QVQLVESGGGLVQAGGRLRLSCAASGRIFAANVMGSYRQAPGKERELVAAISWNGGSTYYADSEKGRFTISRDNAKKSVYLQLNSLKPEDTAVYYCAVRGSYRVWYDYWGQGTQVTVSS” belongs “high polyreactivity”.
The same measure for “QVQLVESGGGLVQAGGRLRLSCAASGRIFPDNTMGWYRQAPGKERELVAVITYSGGSTYYADSVKGRFTISRDNAKNTVYLQMNSLKPEDTAVYYCAARDYYIWFAEVDYWGQGTQVTVSS”: “low polyreactivity”; for “QVQLVESGGGLVQAGGRLRLSCAASGRIFSAYAMGWYRQAPGKERELVAAISRSGGRTYYADSVKGRFTISRDNAKNTVYLQMNSLKPEDTAVYYCAAARFAIVRGDYWGQGTQVTVSS”: “high polyreactivity”; for “QVQLVESGGGLVQAGGRLRLSCAASGRIFSKNAMGWYRQAPGKERELVAVISARGGNTYYADSVKGRFTISRDNAKNTVYLQMNSLKPEDTAVYYCNTPRPYEITTREYYYWGQGTQVTVSS”: “high polyreactivity”.
On to “QVQLVESGGGLVQAGGRLRLSCAASGRIFVAYVMGWYRQAPGKERELVAAITRGVRTYYADSVKGRFTISRDNAKNTVYLQMNSLKPEDTAVYYCAARGISAFSQDYEYYYWGQGTQVTVSS”, for which the “polyreactivity (PSR sort gate)” value is listed as “high polyreactivity”.
The same measure for “QVQLVESGGGLVQAGGRLRLSCAASGRIFVRYVMGWYRQAPGKERELVAAISGGGSSTYYADSVKGRFTISRDNAKNTVYLQMNSLKPVDTAVYYCAAKGTRQPRFDFWGQGTQVTVSS”: “high polyreactivity”; for “QVQLVESGGGLVQAGGRLRLSCAASGRIFVVYAMGWSRQAPGKERELVAAISKRGGSTYYADSVKGRFTISRDNAKYTVYLQMNTLKPEDTAVYYCAAGRYKSDLMDYWGQGTQVTVSS”: “high polyreactivity”; for “QVQLVESGGGLVQAGGRLRLSCAASGRIFYLNAMGWYRQAPGKERELVAAINTSGDSSYYADSVKGRFTISRDNAKNTVYLQMNSLKPEDTAVYYCAAYVIGPDQFIYDYWGQGTQVTVSS”: “low polyreactivity”.
To “QVQLVESGGGLVQAGGRLRLSCAASGRIFYYNAMGWYRQAPGKERELVATITGSGGSTYYADSVKGRFTISRDIAKNTVYLQMNSLKPEDTAVYYCAKRIYRYQYRPENYWGQGTQVTVSS” belongs “low polyreactivity”; to “QVQLVESGGGLVQAGGRLRLSCAASGRSYPPYAMGWYREAPGKERELLAAISYSGGSTYYADSVTGRFTISRDNAKNPVYLQMNSLKPEDTSVFYCNKDISREVGIRMDDWGQGTQVTVSS”, “high polyreactivity”.
The same measure for “QVQLVESGGGLVQAGGRLRLSCAASGRTFGVYVMGWYRQAPGKERELVAAISSSGGLTYYADSVKGRFTISRDNAKNTVYLQMNSMKPEDTAVYYCNAVRRREERDGPPNPMDYWGQGTQVTVSS”: “high polyreactivity”; for “QVQLVESGGGLVQAGGRLRLSCAASGRTFNYYAMGWYRQAPGKERELVATISYNGASTYYADSVKGRFTISRDNAKNTVYLQMNSLKPEDTAVYYCAAGYLWRGRLGNWGQGTQVTVSS”: “high polyreactivity”.
As for “QVQLVESGGGLVQAGGRLRLSCAASGRTFPLYAMGWYRQAPGKERELVAAISSSGGNTYYADSVKGRFTISRDNAKNTVYLQMNSLIPEETAVYYCNADVSTNSDRLQLDYWGQGTQVTVSS”, the “polyreactivity (PSR sort gate)” value is listed as “low polyreactivity”.
To “QVQLVESGGGLVQAGGRLRLSCAASGRTFTYFAMGWYRKAPGKERELVAAISWDDDSTYYADSVKGRFTISRDYAKNTVYLQMNSLKPEDTAVYYCAASYYRQSGEYDYWGQGTQVTVSS” belongs “low polyreactivity”.
To “QVQLVESGGGLVQAGGRLRLSCAASGRTFYVYAMGWYRQAPGKERELVAAISWTGGSTYYADSVKGRFTISRDHAKNTVYLQMNSLKPEDTAVYDCAVDVYRRDYVAYEYWGQGTQVTVSS” belongs “high polyreactivity”; to “QVQLVESGGGLVQAGGRLRLSCAASGRTIVQNAMVWYRHDPGKERALVAAITSSGGRTYYADSVKGRFTISRDNAKNTVYLQMNSLKPEDTAVYYGAVTLRRGYDYWGQGTQVTVSS”, “high polyreactivity”; to “QVQLVESGGGLVQAGGRLRLSCAASGSIFAYYAMGSYRQAPGKERELVAAISSSGGSTTYADSVKGRFTISRDNAKYTVYLQMNSLKPDDTAVYYCNAAWRRSRYYNWGQGTQVTVSS”, “high polyreactivity”.
To “QVQLVESGGGLVQAGGRLRLSCAASGSIFDENTMGWYRQAPGKERELVAAITYSGTSTYYADTVKGRFTISRDNAKNTVYLQMNSLKPEDTAVYYCAAEQWRYDGSFTGYGYWGQGTQVTVSS” belongs “low polyreactivity”; to “QVQLVESGGGLVQAGGRLRLSCAASGSIFGTNAMGWYRQAPGKERELVAAISSSGTSTYYADSVKGRFTISRDNAKNTVYLQMNSLKPEDTAVYYCAAATNWGGEYWGQGTQVTVSS”, “high polyreactivity”.
“QVQLVESGGGLVQAGGRLRLSCAASGSIFPYYAMGWDRQAPGKERELVASINQSDGTRYYADSVKGRFTISRDNAKNTVYLQMNSLKPEDTAVYYCAADTTLQAFIRYRPMGSYDSWGQGTQVTVSS”: the “polyreactivity (PSR sort gate)” value is on record as “low polyreactivity”.
Take “QVQLVESGGGLVQAGGRLRLSCAASGSIFPYYVMGWYRQAPGKERELVAAISTSDGSTYADSVKGRFTISRDNAKNTVYLQMNSLKPEDTAVYYCAVANVYYVGYDYWGQGTRVTVSS”: the “polyreactivity (PSR sort gate)” value is on record as “low polyreactivity”.
The same measure for “QVQLVESGGGLVQAGGRLRLSCAASGSSSTPYTMGWYRPAPGKERELVAAISWIGDTTSYADSVKGRFTISRDNAKNTVYLQMNSLKPEDTAVYYCNAEHRGYDYWGHGTQVTVSS”: “low polyreactivity”.
As to “QVQLVESGGGLVQAGGRLRLSCAASGSTFFIYAMRCFRQAPGKERELVAAISSRGGRTYYADSVKGRFTISRDNAKNTVYLQMNSLKPEDTAVYYCYFLIYSKGQAFDYWGQGTQVSVSS”, the “polyreactivity (PSR sort gate)” value is listed as “high polyreactivity”.
With “QVQLVESGGGLVQAGGRLRLSCAASGSTFGAYAMGWYRQAPGKERELVAAIRGSGAGTYYADSVKGRFTISRDNAKNTVYLQMNSLKPEDTAVYYCNTANLRSLGWTFRRYSYEYWGQGTQVTVSS”, the “polyreactivity (PSR sort gate)” value is “high polyreactivity”.
To “QVQLVESGGGLVQAGGRLRLSCAASGSTFLVYAMGWYRQAPGKERELVAVIRWRDGSTYYADSVKGRFTISRDNAKNTVYLQMNSLKPEDTAGYYCAAVYWGEEYEYWGQGTQVTVSS” belongs “low polyreactivity”; to “QVQLVESGGGLVQAGGRLRLSCAASGSTFRLYAMGRYRQAPGKERELVAAIRGSGGSTYYADSVKGRFTISRDNAKNTVYLQMNSMKPEDNAVYYCAARVVVARRSYVGYGYWGQGTQVTVSS”, “high polyreactivity”; to “QVQLVESGGGLVQAGGRLRLSCAASGSTFVKNTMGWYIQPPGKERELVAAISSRGGSTYYADSVKGRFTISRDNEKNTVYFQMNSLKPEDTAVYYCAKDGRVSRDFDYWGQGTQVTVSS”, “low polyreactivity”.
The same measure for “QVQLVESGGGLVQAGGRLRLSCAASGSTFVRYAMGWYRQAPGKERELVAAISSSGATTYYADSVKGRFTISRDNAKNTVYLQMNSLKPEDTAVYYCAKYGRATRGLDNYWGQGTQVTVSS”: “high polyreactivity”; for “QVQLVESGGGLVQAGGRLRLSCAASGSTFYQYAMGWYRQAPGKERELVAAISKSGGSTYYADSVKGRFTISRDNAKNTVYLQMNSLKPEDTAVYYCATRWIKGRKMVYWGQGTQVTVSS”: “high polyreactivity”.
The same measure for “QVQLVESGGGLVQAGGRLRLSCAASGSTFYRYAMGMYRPAPGKERELVAAINRSGVTTYYADSVKGRFTISRDNAKNTVYLQMNSLKPEDTAVYYCAAVLGRGLDYYYLGQGTQVTVSS”: “high polyreactivity”.
On to “QVQLVESGGGLVQAGGRLRLSCAASGSTIRRYAMRWYRQAPGKERELVAAIRQRGTSTYYADSVKGRFTISRDNAKNTVYLQMNSLKPEDTAVYYCAADSYSSRGNYWGQGTQVTVSS”, for which the “polyreactivity (PSR sort gate)” value is “high polyreactivity”.
Turning to “QVQLVESGGGLVQAGGRLRLSCAASGTRYYAMGWYRQAPGNERELVAGIRWRDGGTYYADSVKGRFTISRDNAKNTVYLQMNSLKPEDTAVYYCNAAQSVELGYDYWGQGTQVTVSS”, the “polyreactivity (PSR sort gate)” value is “high polyreactivity”.
The same measure for “QVQLVESGGGLVQAGGRLRLSCAASGTTFVYYAMGWYRQAPGKERELVAAITASGGRTYYADSVKGRFTISRDNSKNTVYLEMNSLKPDDTAVYYCNARARKSIRVGGYNYWGQGSQVTVSS”: “high polyreactivity”.
Turning to “QVQLVESGGGLVQAGGRLRLSCAASVFIFGIYASGWYRQAPGKDRELVAAITWDTGSTYYADSVKGRFTISRDNAKNTVYLQMNRLKPEDTAVYYRAVDGWDLTYYDSYYSWGQGTQVTVSS”, the “polyreactivity (PSR sort gate)” value is “high polyreactivity”.
To “QVQLVESGGGLVQAGGRLRLSCAASVGTFRPYAMGWYRQAPGKERELVAAISYTGSTYYADSVKGRFTISRDNAKNTVYLQMNSLKPADTAVYYCAKDFWYPPRFDYWGHGTQVTVSS” belongs “low polyreactivity”.
The same measure for “QVQLVESGGGLVQAGGRLRLSCAATGFTFTYYPMGWYRQATGKETEFVAAITWNSGTTYYADSVKGRFTISRDNAKNTVYLQMISLKPEDTAVYYCNALWHRQRWSRGDYWRQGTQVTVSS”: “high polyreactivity”; for “QVQLVESGGGLVQAGGRLRLSCASSGGTLSRYAMGWYRQAPGKERELVAAINWIGGRTSYADSVKGRFTISRDNAKNTVYLQMKSLKPEDTAVYYCAAQYYYAPPWRKYDYWGQGTQVTVSS”: “high polyreactivity”.
